Data on 40 sequences can be found in the nanobody polyreactivity screen of Harvey et al. (2022).

The nature of the series: yeast display, Sf9 membrane polyspecificity reagent, FACS + sequencing; frameworks hold sequencing errors. The procedure, abridged:
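Genes from sorted yeast were amplified by colony PCR, read by MiSeq 2 × 250 sequencing and filtered on CDR length. These cells carried a synthetic nanobody library in Saccharomyces cerevisiae BJ5465 and were sorted by FACS into low and high (top ~1%) gates on anti-HA and streptavidin fluorescence. Polyreactivity is labelled according to the gate of origin.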
Take “QVQLVESGGGLVQAGGSLRLSCAASGITFWKYTMGWYIPAPGKERELVASIRIGGSTYYADSVKGRFTISRDNAKNTVYLQMNSLKPEDTAVYYCAAKGIYGLQGSPRSGYYYWGQGTQVTVSS”: the “polyreactivity (PSR sort gate)” value is given as “high polyreactivity”.
Consider “QVQLVKSGGGLVQAGGSLRLSCAASGSTFYNDMGGYIHSPGKEIELVAAISIGGSTYYADSVKGRFTISRDNANHTVYLQMSCLKPEDTAVYYCAAVWYTSRQKYDYWGQGTQVTVTS”, for which the “polyreactivity (PSR sort gate)” value is “low polyreactivity”.
As to “QVQLVESGGGLVQAGGSLRLSCAASGLIFYYYAKGWYRQAPGKEREFVAAISRSGGITRYADSVKGRFTISRDNAKITVYLQMNSLKPEDTAVYYCAADDYPLTYDDYYWGQGTQVTVSS”, the “polyreactivity (PSR sort gate)” value was “high polyreactivity”.
With “QVQLVESGGGLVQAGGSLRLSCAASGSIFLYNAMGWYRQAPGKERELVAAIRGSDGITFYADSVKGRFTISRDNAKNTVYLQMNSLKPEDTAVYYCAKDTYRSPRHDYGYWGQGTQVTVSS”, the “polyreactivity (PSR sort gate)” value is “low polyreactivity”.
Under “QVQLVESGGGLVQAGGSLRLSCAASGSTFVYYAMGWYRQAPGKERELVAAISTSAGSTYYADSVKGRFTISRDNAKNTVYLQMNSLKPEDTAVYYCAASRKRRRYGSISGGYWGQGTQVTVSS” stands “high polyreactivity”; under “QVQLVESGGGLVQAGGSLRLSCAASGIYYNAMGWYRHAPGKERELVAAITTGDRTNYADSVKGRFTISRDNAKNTVYLQMNSLKPEDTAVYYCNAVVERLSSTARDFAYDYWGQGTQVTVSS”, “low polyreactivity”.
In the case of “QVQLVESGGGLVQAGGRLRLSCASSGGTLSRYAMGWYRQAPGKERELVAAINWIGGRTSYADSVKGRFTISRDNAKNTVYLQMKSLKPEDTAVYYCAAQYYYAPPWRKYDYWGQGTQVTVSS”, the “polyreactivity (PSR sort gate)” value is “high polyreactivity”.
Under “QVQLVESGGGLVQAGGSLRLSCAASGGIFGYYTMGWYRQAPGKERELVAVITRSGGSTYYADSVKGRFTISRDNAKNTVYLQMNSLKPEDTAVYYCASGWRGGRYRYFAYDYWGQGTQVTVSS” stands “high polyreactivity”.
Regarding “QVQLVESGGGLVQAGGSLRLSCAASGSIFRNYAMGWYRQAPGKERELVAAISRTTRTYYADSVKGRFTISRDNAKNTVYLQMNSLKPEDTAVYYCAADYVYAGFWLYYWGQGTQVTVSS”, the “polyreactivity (PSR sort gate)” value is “high polyreactivity”.
In the case of “QVQLVESGGGLVQAGGSLRLSCAASGSIIQYYAMGWYRQAPGKERELVASITWSGGSTYYADSVKGRFTISRDNAKNTVFLQMNSLKPEDTAVYYCAKRLYLKTWAASTADDYWGQGTQVTVSS”, the “polyreactivity (PSR sort gate)” value was “low polyreactivity”.
For the sequence “QVQLVESGGGLVQAGGRLRLSCAASGSIFPYYVMGWYRQAPGKERELVAAISTSDGSTYADSVKGRFTISRDNAKNTVYLQMNSLKPEDTAVYYCAVANVYYVGYDYWGQGTRVTVSS”, the “polyreactivity (PSR sort gate)” value is given as “low polyreactivity”.
For the sequence “QVQLVESGGGLVQAGGSLRLSCAASGFTFPLNAMGWYRQAPGKERELVAAITNGGTTYYADSVKGRFTISRDNAKNTVYLQMNSLKPEDTAVYYCNAQATPYEGRYDESEYDYWGQGTQVTVSS”, the “polyreactivity (PSR sort gate)” value is on record as “low polyreactivity”.
As for “QVQLVESGGGLVQAGGSLRLSCAASGSIFPYNAMGWYRQAPGKERELVATISSGGSTNYADSVKGRFTISRDNAKNTVYLQMNSLKPEDTAVYYCAADVIVFYYAPNYWVDIEYGYWGQGTQVTVSS”, the “polyreactivity (PSR sort gate)” value is recorded as “low polyreactivity”.
Consider “QVQLVESGGGLVQAGGSLRLSCAASGRIFDRYAMGWYRQAPGKERELVAVITGGTGNTYYADSVKGRFTISRDNAKNTVYLQMNSLKPEDTAVYYCNARGGYYKFRYPLYYWGQGTQVTVSS”, for which the “polyreactivity (PSR sort gate)” value is “high polyreactivity”.
“QVQLVESGGGLVQAGGSLRLSCAASGITFADNAMGWYRPAPGKERELVAAITSGGSTYYADSVKGRFTISRDNAKNTVYLQMNSLKPEDTAVYYCNVRVRRLFYWARLVAYDYWGQGTQVTVSS”: the “polyreactivity (PSR sort gate)” value was “high polyreactivity”.
For “QVQLVESGGGLVQAGGSLRLSCAASGIIFAAYVMGWYRQAPGKERELVAAISKSGGRTYYADSVKGRFTISRDNAKNTVYLQMNSLKREDTAVYYCAASYTYYSIGLGTDVRYGYWGEGTQVTVSS” the value was “high polyreactivity”; for “QVQLVESGGCLVQAGGSLRLSCAASGFTFPYYAMGWDRQAPGKERELVAAISSGGRTNYADSVKGRFTISRDNAKNTVYLQMNSLKPEDTAVYYCATRSYVFAWEFNYWGQGTQVTVSS”, “high polyreactivity”; for “QVQLVESGGGLVQAGGSLRLSCAASGRIFDSYAMGWYRQAPGKERELVATISWDSATTYYADSVKGRFTISRDNAKNTVYLQMNSLKPEDTAVYYCNTRDLYGYPQVTGYDYWGQGTQVTVSS”, “low polyreactivity”.
In the case of “QVQLVESGGGLVQAGGSLRLSCAASGSIFSYYAMGWYRQAPGKEREFVAAITKSGGSTYYADSVKGRFTISRDNAKNTVYLQMNSLKPEDTAVYYCAADEGGFWWTYPYDSWGQGTQVTVSS”, the “polyreactivity (PSR sort gate)” value is “low polyreactivity”.
Take “QVQLVESGGGLVQAGGSLRLSCAASEGWYRQAPGKERELVAAISYIGGSTYYADSVKGRFTISRDNAKNTVYLQMNSLKPEDTAVYYCAKGYPDPQWGGVLAYDYWGQGTQVTVSS”: the “polyreactivity (PSR sort gate)” value is “low polyreactivity”.
For “QVQLVESGVGLVQAGGILRLSCAASGSIFAVNAMGWYRQAPGKERELFAAISKRGGSTYYADSVKGRFTISRDNAKNTVYLQMNSLKPEDTAVYYCAARILVTYHRDYYYWGLGTQVTVSS” the value was “high polyreactivity”; for “QVQLVETGGGLVQAGGSLRLSCASSGITFYRYGKGRYRQAPGKERELVAAITYNGGGTYYADSVKGRFTISRDNAKNTVYLQMNSLKPEDTAVYYCATLRPYAYPQYDSWGQGTQVTVSS”, “high polyreactivity”.
On to “QVQLVESGGGLVQAGGSLRLSCAASGRISAYYAMGWYRQAPGKERELVAVITSGGRTNYADSVKGRFTISRDNAKNTVYLQMNSLKPEDTAVYYCAARSRVSPRYDYWGQGTQVTVSS”, for which the “polyreactivity (PSR sort gate)” value is “high polyreactivity”.
With “QVHLVESGGGLVQAGGILRLSWASSGFIFPRYAMGSYRQAPGKERELVAGITSRGTGTYYADSVKGRFTISRDNAKNTVYLQMNSLKQEDTAVYYCARLSTKPLPYDDWGQGTQVTVSS”, the “polyreactivity (PSR sort gate)” value was “high polyreactivity”.
For “QVQLVESGGGSVQAGGSLRLSCAASGFTIRTYAMGWYRQAPGKERELVAAITSSGSSTYYAYSVKGRFTISRDNAKNTVYLQMNSLKPEDTAVYYCAADAPRSYRFGYWGQGTQVTVSA” the value was “high polyreactivity”.
On to “QVQLVESAGGLVQAGGSLRLSCAASGLTFVRYGMGWYRQAPGKERELVAAITSDDSTYYADSVKGSFTISRDNAQNTVYLQMNSLNPEDTAVYYCAARYTLYDTGESSRTYTGFIYWGLGTQVTVSS”, for which the “polyreactivity (PSR sort gate)” value is given as “low polyreactivity”.
As to “QVQLVESGGGLVQAGGSLRLSCAASGLTFVFYAMGWYRQSPGNERELVAAISWSTGRTYYADSVKGRFTISRDNAKNTVYLQMNSLKPEDTAVFYCGASFLGRKYDYWGHGTQVTVSS”, the “polyreactivity (PSR sort gate)” value was “high polyreactivity”.
For “QVQLVESGGGLVQAGGSLRLSCAASGRTLNVYAMGWYRQAPGKDREFVAAITVSGGNTYADSVKGRFTISRDNAKNTVYLQMNSLKPEDTAVYYCAVDRFSYSRRYDYWGQGTQVTVSS”, the “polyreactivity (PSR sort gate)” value was “high polyreactivity”.
Take “QVQLVESGGGLVQAGGSLRLSCAASGSIFYPNAMGWYRQAPGKERELVATIRRRGGSTYYADSVKGRFTISRDNAKNTVYLQMHSLKPEDTAVDYCAVGSPTPYRALDLYDYWGQGTQVTVSS”: the “polyreactivity (PSR sort gate)” value is recorded as “high polyreactivity”.
In the case of “QVQLVESGGGLVQAGGSLRLSCAASGRTFKAYAMGWYRQAPGKERELVAGISWSGGNTYYADSVKGRFTISRDNAKNTVYLQMNSLKPEDTAVYYCAASLGGLWEDDYWGQGTQVTVSS”, the “polyreactivity (PSR sort gate)” value is on record as “high polyreactivity”.
Under “QVQLVESGGGLVQAGGSLRLSCAASGSIFVRNGMGWYRQAPGKERELVASITSGTITYYADSVKGRFTISRDNAKNTVYLQMNSLKPEDTAVYYCAAYQYPADFKLYYYWGQGTQVTVSS” stands “high polyreactivity”; under “QVQLVESGGGLVQAGGSLRLSCAASGSIFRYYAMGWYRQAPGKERELVASIRRGDSTYYADSVKGRFTISRDNAKNTVYLQMNSLKPEDTAVYYCAARFFWPQRGGYWGQGTQVTVSS”, “high polyreactivity”; under “QVQLEESGGGLVQAGGSLRLSCAASGRIFPINTMGWYRQAPGKERELVAAISSNGGRTYYADSVKGRFTISRDNAKNTVYLQMNSLKPEDTAVYYCAADAGYYWPGYYYWGQGTQVTVSS”, “high polyreactivity”.
As for “QVQLVESGGGLVQAGGSLRLRCAASGRTFLTNTLGWYRQAPGKERELVAAISSGGSTKYADSVKGRFTISRDNAKNTVYLQMNSLKTEDTAVYYCAATGWRYGYKYYYWGQGTQVTVSS”, the “polyreactivity (PSR sort gate)” value was “high polyreactivity”.
“QLQLQESGGGLVQAGGSLRLSSAASGTISPLPAMGLYSQATGKERELVPGIDTGAITNYADSVKGRFTISRDNAKHTVYLQMNSLKPEDTAVYYCAVFPAAYDYYERYYTEWGQGTQVTVSS”: the “polyreactivity (PSR sort gate)” value is recorded as “high polyreactivity”.
Turning to “QVQLVESGGGLVQAGGSLRLSCAASGIILSPYTMGWYRQAPGKERELVAGISRSGGTTYYADSVKGRFTISRDNAKNTVYLQMNSLKPEDTAVYYCAARKPGWGHEWWVEHYYYWGQGTQVTVSS”, the “polyreactivity (PSR sort gate)” value was “low polyreactivity”.
Take “QVQLVESGGGLVQAGGSLRLSCAASGSTFHGYTIGWSRQAPGKERELVAAISSRGTSTYYADSVKGRFTISRDNAMNTVYLQMNSLKTEDTAVYYCATRGWDKYWGQGTQVTVSS”: the “polyreactivity (PSR sort gate)” value is on record as “high polyreactivity”.
For “QVQLVESGGGLVQAGGSLRLSCAASGSIIASNAMGWYRHAPWKERELVAAITNGGRTNYADSVKGRFTISRDNAKNTVYLQMNSMKPEDTAVYYCDALWSRCAGFEYCGQGTQVTVSS”, the “polyreactivity (PSR sort gate)” value is given as “high polyreactivity”.
On to “QVQLVESGGGLVQAGGSLRLSCAASRLTFRYYAMGWYRKAPGKERELVAAISSRGASTYYADSVKGRFTISRDNAKNTVYLQMNSLKPEDTAVYNCAVRTYVYHWSFSSLPYDYWGQGTQVTVSS”, for which the “polyreactivity (PSR sort gate)” value is “high polyreactivity”.
As to “QVQLVESGGGLVQAGGSLRLSCAASGSIFPLNAMGWYRQSPGKERELVATISWRGGITYYADSVKGRFTISRDNAKNTVYLQMNSLKPEDTAVYYCATVGRWNSLWYRYRYDYWGQGTQVTVSS”, the “polyreactivity (PSR sort gate)” value is “low polyreactivity”.
